# Laboratory results as given in patent US20230050440A1 (Seagen, published 2023).
# T1: monomeric human TIGIT (Sino Biological 10917-H08H) (human, UniProt Q495A1 22-138, biotinylated in the MSD-SET assay)
# T1 construct: Bought protein; also called Human TIGIT monomer; Human TIGIT-His; not shown: His tag
# T1 sequence: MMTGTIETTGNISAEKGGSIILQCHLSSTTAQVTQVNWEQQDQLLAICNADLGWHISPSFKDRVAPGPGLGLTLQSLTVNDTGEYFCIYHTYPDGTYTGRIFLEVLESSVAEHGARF
# T2: human TIGIT expressed on cells (human, UniProt Q495A1 22-244)
# T2 construct: HEK 293 cells stably expressing human TIGIT, primary human T cells or Jurkat effector cells; the cell is named under assay; also called Human TIGIT HEK
# T2 sequence: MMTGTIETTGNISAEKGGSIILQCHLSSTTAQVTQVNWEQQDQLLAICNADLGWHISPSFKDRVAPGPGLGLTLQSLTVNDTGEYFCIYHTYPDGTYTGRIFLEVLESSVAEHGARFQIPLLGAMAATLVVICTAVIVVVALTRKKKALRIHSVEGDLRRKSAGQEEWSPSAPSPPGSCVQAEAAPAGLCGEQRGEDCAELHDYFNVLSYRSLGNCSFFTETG
# T3: recombinant dimeric human TIGIT-Fc (Acro Biosystems TIT-H5254) (human, UniProt Q495A1 22-141)
# T3 construct: Bought protein; also called hTIGIT-Fc; not shown: Fc part of the bought fusion protein
# T3 sequence: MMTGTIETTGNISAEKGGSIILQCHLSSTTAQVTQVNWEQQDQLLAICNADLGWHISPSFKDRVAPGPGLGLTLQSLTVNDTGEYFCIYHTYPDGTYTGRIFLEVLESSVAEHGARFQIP
# Key:
# [1] = target: T1, monomeric human TIGIT (Sino Biological …); assay: BLI (ForteBio), IgG on sensor, monovalent
# Protocol: (§1) Briefly, ForteBio affinity measurements were performed by loading IgGs on-line onto AHQ sensors. Sensors were equilibrated off-line in assay buffer for 30 minutes and then monitored on-line for 60 seconds for baseline establishment. Sensors with loaded IgGs were exposed to 100 nM antigen (dimeric Fc-fusion antigen or monomeric antigen) for 3 minutes, and afterwards were transferred to assay buffer for 3 minutes for off-rate measurement. All binding and dissociation kinetics were analyzed using the 1:1 binding model.
# The optimized antibodies were also tested for ligand blocking in a CD155 ligand competition assay, and for binding to human TIGIT HEK, cyno TIGIT HEK, mouse TIGIT HEK, and parental HEK cell lines, as described above.
# [2] = target: T4, cynomolgus monkey TIGIT expressed on cells (cynomolgus monkey); assay: flow cytometry on HEK 293 cells expressing the target, MFI over parental HEK 293;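 also: bound antibody detected with PE-labelled anti-human IgG, 15 min on ice. FOB equals median fluorescence on TIGIT-positive cells divided by that on target-negative cells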
# T4 construct: HEK 293 cells stably expressing cynomolgus monkey TIGIT or cynomolgus T cells; also called Cyno TIGIT HEK
# T4 sequence (chain, as listed by the source limits assumed): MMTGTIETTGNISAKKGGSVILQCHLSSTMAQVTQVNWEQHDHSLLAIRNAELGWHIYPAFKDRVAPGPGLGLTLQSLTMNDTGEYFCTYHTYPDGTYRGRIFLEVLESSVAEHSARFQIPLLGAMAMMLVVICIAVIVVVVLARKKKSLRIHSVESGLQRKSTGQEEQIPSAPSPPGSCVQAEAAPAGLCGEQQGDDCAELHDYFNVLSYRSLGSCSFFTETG
# Protocol: (§2) HEK 293 cells were engineered to stably express high levels of human, mouse or cynomolgus monkey TIGIT by lentiviral transduction. […] Cells were then washed twice with wash buffer and incubated with anti-human IgG conjugated to PE for 15 minutes on ice. Cells were then washed twice with wash buffer and analyzed by flow cytometry on a FACS Canto II instrument (BD Biosciences). Fold over background (FOB) was calculated as the median fluorescence intensity (MFI) of the anti-TIGIT clone bound to target-positive cells divided by the MFI of the anti-TIGIT clone bound to target-negative cells.
# [3] = target: T2, human TIGIT expressed on cells; assay: as above
# Protocol: as §2
# cyno TIGIT-Fc = target: T5, cyno TIGIT-Fc (cynomolgus monkey); assay: BLI (ForteBio), IgG on sensor, avid
# T5 construct: not shown: Fc part
# T5 sequence (chain, as listed by the source limits assumed): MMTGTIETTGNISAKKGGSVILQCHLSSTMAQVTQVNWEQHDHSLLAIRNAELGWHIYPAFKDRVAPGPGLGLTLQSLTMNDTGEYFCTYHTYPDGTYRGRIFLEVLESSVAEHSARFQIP
# [4] = target: T1, monomeric human TIGIT (Sino Biological …); assay: MSD-SET solution equilibrium titration, biotinylated antigen at 50 pM
# Protocol: Antibodies (20 nM in PBS) were coated onto standard bind MSD-ECL plates overnight at 4° C. or at room temperature for 30 min. Plates were then blocked with 1% BSA for 30 min with shaking at 700 rpm, followed by three washes with wash buffer (PBSF+0.05% Tween 20). SET samples were applied and incubated on the plates for 150s with shaking at 700 rpm followed by one wash. Antigen captured on a plate was detected with 250 ng/ml sulfotag-labeled streptavidin in PBSF by incubation on the plate for 3 min. The plates were washed three times with wash buffer and then read on the MSD Sector Imager 2400 instrument using 1× Read Buffer T with surfactant. The percent free antigen was plotted as a function of titrated antibody in Prism and fit to a quadratic equation to extract the KD. To improve throughput, liquid handling robots were used throughout MSD-SET experiments, including SET sample preparation.
# [5] = target: T3, recombinant dimeric human TIGIT-Fc …; assay: BLI (ForteBio Octet RED384), IgG on AHQ sensor, 100 nM antigen, 1:1 model
# Protocol: as §1
# [6] = target: T1, monomeric human TIGIT (Sino Biological …); assay: as above
# Protocol: as §1
Kd [1],FOB (Fold Over Background) [2],FOB (Fold Over Background) [3],Kd (cyno TIGIT-Fc),Kd [4],Kd [5],Kd [6],Binder
1.1 nM,238 fold,207 fold,1.64 nM,0.018 nM,,,"Clone 25A (antibody, V domains shown) VH: QVQLVQSGAEVKKPGASVKVSCKASGYTFTSYAISWVRQAPGQGLEWMGWISAYNGNTKYAQKLQGRVTMTTDTSTSTAYMELRSLRSDDTAVYYCARDLSSFWSGDVLGAFDIWGQGTMVTVSS VL: DIQMTQSPSSLSASVGDRVTITCRASQSISSYLNWYQQKPGKAPKLLIYAASSLQSGVPSRFSGSGSGTDFTLTISSLQPEDFATYYCQQSVPPRTFGGGTKVEIK"
0.846 nM,272 fold,225 fold,1.18 nM,0.027 nM,,,"Clone 25D (antibody, V domains shown) VH: QVQLVQSGAEVKKPGASVKVSCKASGYTFTSYPIGWVRQAPGQGLEWMGWISSYNGNTNYAQKLQGRVTMTTDTSTSTAYMELRSLRSDDTAVYYCARDLKSFWSGDVLGAFDIWGQGTMVTVSS VL: DIQMTQSPSSLSASVGDRVTITCRASQSISSYLNWYQQKPGKAPKLLIYAASSLQSGVPSRFSGSGSGTDFTLTISSLQPEDFATYYCQQSVPPRTFGGGTKVEIK"
0.697 nM,286 fold,216 fold,1.24 nM,0.0056 nM,,,"Clone 25C (antibody, V domains shown) VH: QVQLVQSGAEVKKPGASVKVSCKASGYTFTSYPIGWVRQAPGQGLEWMGWISSYNGNTNYAQKLQGRVTMTTDTSTSTAYMELRSLRSDDTAVYYCARGASSFWSGDVLGAFDIWGQGTMVTVSS VL: DIQMTQSPSSLSASVGDRVTITCRASQSISSYLNWYQQKPGKAPKLLIYAASSLQSGVPSRFSGSGSGTDFTLTISSLQPEDFATYYCQQSVPPRTFGGGTKVEIK"
0.851 nM,252 fold,204 fold,1.18 nM,0.013 nM,,,"Clone 25E (antibody, V domains shown) VH: QVQLVQSGAEVKKPGASVKVSCKASGYTFTSYAIAWVRQAPGQGLEWMGWISAYNGNTNYAQKLQGRVTMTTDTSTSTAYMELRSLRSDDTAVYYCARSGSSFWSGDVLGAFDIWGQGTMVTVSS VL: DIQMTQSPSSLSASVGDRVTITCRASQSISSYLNWYQQKPGKAPKLLIYAASSLQSGVPSRFSGSGSGTDFTLTISSLQPEDFATYYCQQSVPPRTFGGGTKVEIK"
1.16 nM,291 fold,222 fold,1.4 nM,0.022 nM,,,"Clone 25B (antibody, V domains shown) VH: QVQLVQSGAEVKKPGASVKVSCKASGYTFTSYPIGWVRQAPGQGLEWMGWISSYNGNTNYAQKLQGRVTMTTDTSTSTAYMELRSLRSDDTAVYYCARDLSSFWSGDVLGAFDIWGQGTMVTVSS VL: DIQMTQSPSSLSASVGDRVTITCRASQSISSYLNWYQQKPGKAPKLLIYAASSLQSGVPSRFSGSGSGTDFTLTISSLQPEDFATYYCQQSVPPRTFGGGTKVEIK"
,,,,,0.79 nM,13.8 nM,"Clone 22 (antibody, V domains shown, Fully human IgG produced in yeast) VH: QVQLQESGPGLVKPSETLSLTCAVSGYSISSGYYWAWIRQPPGKGLEWIGSIYHSGSTYYNPSLKSRVTISVDTSKNQFSLKLSSVTAADTAVYYCARQGYYYGSSGSVDFDLWGRGTLVTVSS VL: DIQMTQSPSSVSASVGDRVTITCRASQGISSWLAWYQQKPGKAPKLLIYAASNLQSGVPSRFSGSGSGTDFTLTISSLQPEDFATYYCQQANSLPPWTFGGGTKVEIK"

# Second part, the binder before the results:
Binder,Kd [1],FOB (Fold Over Background) [2],FOB (Fold Over Background) [3],Kd (cyno TIGIT-Fc),Kd [4],Kd [5],Kd [6]
"Clone 2C (antibody, V domains shown) VH: EVQLVESGGGLVQPGGSLRLSCAASGFTFTDYYMDWVRQAPGKGLEWVGRTRNKVNSYYTEYAASVKGRFTISRDDSKNSLYLQMNSLKTEDTAVYYCARGQYYYGSDRRGYYYMDVWGQGTTVTVSS VL: EIVLTQSPGTLSLSPGERATLSCRASQSVSSSYLAWYQQKPGQAPRLLIYGASSRATGIPDRFSGSGSGTDFTLTISRLEPEDFAVYYCQQAVPSPLTFGGGTKVEIK",0.518 nM,224 fold,193 fold,0.984 nM,0.016 nM,,
"Clone 21 (antibody, V domains shown, Fully human IgG produced in yeast) VH: QLQLQESGPGLVKPSETLSLTCTVSGGSISSSSYYWGWIRQPPGKGLEWIGSIYYSGSTYYNPSLKSRVTISVDTSKNQFSLKLSSVTAADTAVYYCARDPLYQDAPFDYWGQGTLVTVSS VL: EIVLTQSPATLSLSPGERATLSCRASQSVSSYLAWYQQKPGQAPRLLIYDASNRATGIPARFSGSGSGTDFTLTISSLEPEDFAVYYCQQRANFPTFGGGTKVEIK",,,,,,0.585 nM,2.18 nM
"Clone 16C (antibody, V domains shown) VH: QVQLVQSGAEVKKPGSSVKVSCKASGGTFREYAISWVRQAPGQGLEWMGGIHPIFGTARYAQKFQGRVTITADESTSTAYMELSSLRSEDTAVYYCTRQSTWHKLYGTDVWGQGTTVTVSS VL: DIQMTQSPSSVSASVGDRVTITCRASQGISSWLAWYQQKPGKAPKLLIYAASSLQSGVPSRFSGSGSGTDFTLTISSLQPEDFATYYCQQGDSLPPTFGGGTKVEIK",0.911 nM,157 fold,208 fold,4.25 nM,0.0063 nM,,
"Clone 18 (antibody, V domains shown, Fully human IgG produced in yeast) VH: QVQLVQSGAEVKKPGASVKVSCKASGYTFTSYYMSWVRQAPGQGLEWMGIINPSGGSTSYAQKFQGRVTMTRDTSTSTVYMELSSLRSEDTAVYYCARVRYGYADGMDVWGQGTTVTVSS VL: DIQMTQSPSSLSASVGDRVTITCRASQSISSYLNWYQQKPGKAPKLLIYGASSLQSGVPSRFSGSGSGTDFTLTISSLQPEDFATYYCQQVYHLPFTFGGGTKVEIK",,,,,,2.39 nM,50.8 nM
"Clone 16E (antibody, V domains shown) VH: QVQLVQSGAEVKKPGSSVKVSCKASGGTFSDYPISWVRQAPGQGLEWMGGIIPIVGGANYAQKFQGRVTITADESTSTAYMELSSLRSEDTAVYYCARQSTWHKVYGTDVWGQGTTVTVSS VL: DIQMTQSPSSVSASVGDRVTITCRASQGISSWLAWYQQKPGKAPKLLIYAASSLQSGVPSRFSGSGSGTDFTLTISSLQPEDFATYYCQQGDSLPPTFGGGTKVEIK",0.778 nM,186 fold,195 fold,1.36 nM,0.011 nM,,
"Clone 16D (antibody, V domains shown) VH: QVQLVQSGAEVKKPGSSVKVSCKASGGTFSDYPISWVRQAPGQGLEWMGGIIPIVGGANYAQKFQGRVTITADESTSTAYMELSSLRSEDTAVYYCTRQSTWHKLFGTDVWGQGTTVTVSS VL: DIQMTQSPSSVSASVGDRVTITCRASQGISSWLAWYQQKPGKAPKLLIYAASSLQSGVPSRFSGSGSGTDFTLTISSLQPEDFATYYCQQGDSLPPTFGGGTKVEIK",0.596 nM,241 fold,199 fold,1.15 nM,0.013 nM,,
"Clone 13D (antibody, V domains shown) VH: QVQLVQSGAEVKKPGSSVKVSCKASGGTFLSSAISWVRQAPGQGLEWMGSIIPYFGKANYAQKFQGRVTITADESTSTAYMELSSLRSEDTAVYYCARGPSEVKGILGYVWFDPWGQGTLVTVSS VL: not shown",0.571 nM,,,,0.005 nM,,
"Clone 13C (antibody, IgG1, V domains shown) VH: QVQLVQSGAEVKKPGSSVKVSCKASGGTFLSSAISWVRQAPGQGLEWMGSIIPLFGKANYAQKFQGRVTITADESTSTAYMELSSLRSEDTAVYYCARGPSEVKGILGYVWFDPWGQGTLVTVSS VL: not shown",0.563 nM,,,,0.0086 nM,,
"Clone 13A (antibody, V domains shown) VH: QVQLVQSGAEVKKPGSSVKVSCKASGGTFLSSAISWVRQAPGQGLEWMGSLIPYFGTANYAQKFQGRVTITADESTSTAYMELSSLRSEDTAVYYCARGPSEVGAILGYVWFDPWGQGTLVTVSS VL: not shown",0.627 nM,,,,0.025 nM,,
"Clone 13B (antibody, V domains shown) VH: QVQLVQSGAEVKKPGSSVKVSCKASGGTFSAWAISWVRQAPGQGLEWMGSIIPYFGKANYAQKFQGRVTITADESTSTAYMELSSLRSEDTAVYYCARGPSEVSGILGYVWFDPWGQGTLVTVSS VL: not shown",0.61 nM,,,,0.0053 nM,,
"Clone 14 (antibody, V domains shown, Fully human IgG produced in yeast) VH: QVQLVQSGAEVKKPGSSVKVSCKASGGTFSSYAISWVRQAPGQGLEWMGSIIPIFGTANYAQKFQGRVTITADESTSTAYMELSSLRSEDTAVYYCARGPSEVGAILGYVWFDPWGQGTLVTVSS VL: not shown",,,,,,2.01 nM,58.7 nM
